Experimental data published in patent US20210363245A1.
Where two headings read alike, the source gives them in different places. Blank lines part the entries; values can stand above or below the substance they belong to.

What was measured:
Test in all cases: cell-based or functional assay
[1] = target: CD19 (UniProt P15391)
[2] = target: CD20 (human) (UniProt P11836)
[3] = target: CD19 (UniProt P15391); remark: listed apart in the source
[4] = target: CD20 (human) (UniProt P11836); remark: listed apart in the source
[5] = target: CD19 (UniProt P15391); remark: listed apart in the source
[6] = target: CD20 (human) (UniProt P11836); remark: listed apart in the source
[7] = target: CD19 (UniProt P15391); remark: listed apart in the source
[8] = target: CD20 (human) (UniProt P11836); remark: listed apart in the source

Sequence of UniProt P11836 (P11836 whole entry): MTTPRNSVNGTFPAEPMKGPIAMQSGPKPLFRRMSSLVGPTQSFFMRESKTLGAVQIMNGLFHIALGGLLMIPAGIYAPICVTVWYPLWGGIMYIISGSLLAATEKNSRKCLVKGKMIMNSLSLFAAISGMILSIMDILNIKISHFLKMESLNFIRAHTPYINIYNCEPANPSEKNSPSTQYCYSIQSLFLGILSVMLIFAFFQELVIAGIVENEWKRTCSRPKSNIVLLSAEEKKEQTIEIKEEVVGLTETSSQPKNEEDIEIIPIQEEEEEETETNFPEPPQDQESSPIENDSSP
Sequence of UniProt P15391 (P15391 20-556 limits assumed): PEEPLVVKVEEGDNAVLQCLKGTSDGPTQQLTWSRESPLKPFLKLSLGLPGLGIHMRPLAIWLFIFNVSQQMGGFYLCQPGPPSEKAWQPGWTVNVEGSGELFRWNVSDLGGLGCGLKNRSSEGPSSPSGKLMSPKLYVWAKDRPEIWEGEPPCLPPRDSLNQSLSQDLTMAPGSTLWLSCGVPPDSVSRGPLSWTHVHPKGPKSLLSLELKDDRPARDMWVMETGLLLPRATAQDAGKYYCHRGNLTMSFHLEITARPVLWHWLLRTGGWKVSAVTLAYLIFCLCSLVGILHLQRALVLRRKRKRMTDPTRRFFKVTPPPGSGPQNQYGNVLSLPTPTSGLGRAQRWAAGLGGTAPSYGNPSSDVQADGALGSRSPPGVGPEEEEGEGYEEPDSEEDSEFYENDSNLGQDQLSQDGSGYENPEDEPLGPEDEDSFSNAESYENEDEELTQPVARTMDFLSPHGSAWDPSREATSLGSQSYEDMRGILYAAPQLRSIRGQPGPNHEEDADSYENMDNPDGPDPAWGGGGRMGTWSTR

IFNγ release (ELISA), overnight co-culture with CD19-K562 [1]: 21200 pg/mL | IFNγ release (ELISA), overnight co-culture with Nalm6 [1]: 6940 pg/mL | IFNγ release (ELISA), overnight co-culture with ST486 [1]: 745 pg/mL | IFNγ release (ELISA), overnight co-culture with SU-DHL-4 [1]: 2280 pg/mL | IFNγ release (ELISA), overnight co-culture with Toledo [1]: 4570 pg/mL | IL-2 release (ELISA), overnight co-culture with CD19-K562 [1]: 616 pg/mL | IL-2 release (ELISA), overnight co-culture with Nalm6 [1]: 111 pg/mL | IL-2 release (ELISA), overnight co-culture with ST486 [1]: < 16 pg/mL | IL-2 release (ELISA), overnight co-culture with SU-DHL-4 [1]: < 16 pg/mL | IL-2 release (ELISA), overnight co-culture with Toledo [1]: 55 pg/mL | IFNγ release (ELISA), overnight co-culture with CD20-K562 [2]: 43 pg/mL | IL-2 release (ELISA), overnight co-culture with CD20-K562 [2]: < 16 pg/mL | IFNγ release (ELISA), overnight co-culture with CD19-K562 [3]: 31900 pg/mL | IFNγ release (ELISA), overnight co-culture with Nalm6 [3]: 5700 pg/mL | IFNγ release (ELISA), overnight co-culture with ST486 [3]: 3610 pg/mL | IFNγ release (ELISA), overnight co-culture with SU-DHL-4 [3]: 5190 pg/mL | IFNγ release (ELISA), overnight co-culture with Toledo [3]: 6470 pg/mL | IFNγ release (ELISA), overnight co-culture with CD20-K562 [4]: 21 pg/mL | IFNγ release (ELISA), overnight co-culture with CD19-K562 [5]: 13300 pg/mL | IFNγ release (ELISA), overnight co-culture with Nalm6 [5]: 6520 pg/mL | IFNγ release (ELISA), overnight co-culture with ST486 [5]: 1430 pg/mL | IFNγ release (ELISA), overnight co-culture with CD20-K562 [6]: 808 pg/mL | IFNγ release (ELISA), overnight co-culture with CD19-K562 [7]: 13900 pg/mL | IFNγ release (ELISA), overnight co-culture with CD20-K562 [8]: 118 pg/mL
Substance: Hu19-CD828Z

IFNγ release by Hu1928-2.1.2BB T cells with ST486 CD19-/- cells, human IgG at 0 ug/ml [2]: 6490 pg/mL | IFNγ release by Hu1928-2.1.2BB T cells with ST486 CD19-/- cells, human IgG at 6.2 ug/ml [2]: 5840 pg/mL | IFNγ release by Hu1928-2.1.2BB T cells with ST486 CD19-/- cells, human IgG at 12.5 ug/ml [2]: 5590 pg/mL | IFNγ release by Hu1928-2.1.2BB T cells with ST486 CD19-/- cells, human IgG at 25 ug/ml [2]: 5470 pg/mL | IFNγ release by Hu1928-2.1.2BB T cells with ST486 CD19-/- cells, human IgG at 50 ug/ml [2]: 6510 pg/mL | IFNγ release by Hu1928-2.1.2BB T cells with ST486 CD19-/- cells, human IgG at 100 ug/ml [2]: 5920 pg/mL
Substance: Human IgG (antibody)

IFNγ release (ELISA), overnight co-culture with CD19-K562 [1]: 1050 pg/mL | IL-2 release (ELISA), overnight co-culture with CD19-K562 [1]: < 16 pg/mL | IFNγ release (ELISA), overnight co-culture with CD20-K562 [2]: 56700 pg/mL | IFNγ release (ELISA), overnight co-culture with Nalm6 [2]: 1290 pg/mL | IFNγ release (ELISA), overnight co-culture with ST486 [2]: 14300 pg/mL | IFNγ release (ELISA), overnight co-culture with Toledo [2]: 7770 pg/mL | IL-2 release (ELISA), overnight co-culture with CD20-K562 [2]: 4620 pg/mL | IL-2 release (ELISA), overnight co-culture with Nalm6 [2]: < 16 pg/mL | IL-2 release (ELISA), overnight co-culture with ST486 [2]: 215 pg/mL | IL-2 release (ELISA), overnight co-culture with Toledo [2]: 104 pg/mL | IFNγ release (ELISA), overnight co-culture with CD19-K562 [3]: 55 pg/mL | IFNγ release (ELISA), overnight co-culture with CD20-K562 [4]: 36500 pg/mL | IFNγ release (ELISA), overnight co-culture with Nalm6 [4]: 800 pg/mL | IFNγ release (ELISA), overnight co-culture with ST486 [4]: 9070 pg/mL | IFNγ release (ELISA), overnight co-culture with Toledo [4]: 6590 pg/mL
Substance: C2B8-CD828Z
